The assay deals with tau seeds from spinal cords of P301S transgenic animals (human), P10636. Briefly: cell-based or functional assay.
tau seeds from spinal cords of P301S transgenic animals (human), P10636, sequence (P10636 other isoform, or with tags, fused parts or gaps P301S P301S): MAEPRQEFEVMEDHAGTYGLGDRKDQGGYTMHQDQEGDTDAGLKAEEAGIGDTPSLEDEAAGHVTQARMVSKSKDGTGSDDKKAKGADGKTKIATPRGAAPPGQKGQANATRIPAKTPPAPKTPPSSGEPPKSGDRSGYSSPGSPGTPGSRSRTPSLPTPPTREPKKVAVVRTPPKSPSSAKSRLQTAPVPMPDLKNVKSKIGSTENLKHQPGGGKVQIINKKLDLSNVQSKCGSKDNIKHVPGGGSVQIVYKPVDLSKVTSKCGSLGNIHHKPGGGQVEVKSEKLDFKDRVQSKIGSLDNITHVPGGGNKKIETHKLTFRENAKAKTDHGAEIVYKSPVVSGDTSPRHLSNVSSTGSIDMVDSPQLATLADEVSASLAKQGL

B1: PT3 (mouse-hybridoma-derived antibody) (antibody, V domains shown)
VH: EVKLVESGGDLVKPGGSLKLSCAASGFTFSSYAMSWVRQNPEKRLEWVASISKGGNTYYPNSVKGRFTISRDNARNILYLQMSSLRSEDTALYYCARGWGDYGWFAYWGQVTLVTVSA
VL: DIKMTQSPSSMYASLGERVTITCKASQDINRYLNWFQQKPGKSPKTLIYRANRLLDGVPSRFSGSGSGQDYSLTISSLDYEDMGIYYCLQYDEFPLTFGDGTKLELK
modifications: here or on the partner: aggregated
In the case of B1, the FRET/P301S spinal cord immunodepletion assay, 300 nM antibody (% of negative control) was determined as 96.2; the blocking of aggregate induction (FRET assay) at 3 nM is 30.7%; the blocking of aggregate induction (FRET assay) at 30 nM came to 37%; the inhibition of K18 aggregate induction, FRET/P301S spinal cord co-incubation assay, 300 nM antibody (% of negative control) was found to be 34.

Values taken from patent US20230047413A1.
